Data published in patent US20140100172A1 (MALLINCKRODT, published 2014).
Where two headings read alike, the source gives them in different places. Square brackets hold non-standard residues; d marks the D form. * marks the point of attachment. 2Nal = N[C@@H](Cc1ccc2ccccc2c1)C(=O)O; NMeR = CN[C@@H](CCCNC(=N)N)C(=O)O; Dap = NC[C@H](N)C(=O)O; nal = not defined here; 125I = [125I]*

B3: human chemokine receptor type 4 (CXCR4) (receptor, UniProt P61073 1-352, looked up)
chain: MEGISIYTSDNYTEEMGSGDYDSMKEPCFREENANFNKIFLPTIYSIIFLTGIVGNGLVILVMGYQKKLRSMTDKYRLHLSVADLLFVITLPFWAVDAVANWYFGNFLCKAVHVIYTVNLYSSVLILAFISLDRYLAIVHATNSQRPRKLLAEKVVYVGVWIPALLLTIPDFIFANVSEADDRYICDRFYPNDLWVVVFQFQHIMVGLILPGIVILSCYCIIISKLSHSKGHQKRKALKTTVILILAFFACWLPYYIGISIDSFILLEIIKQGCEFENTVHKWISITEALAFFHCCLNPILYAFLGAKFKTSAQHALTSVSRGSSLKILSKGKRGGHSSVSTESESSSFHSS
notes: whole, on cells; also called CXCR4 receptor; CXCR4 chemokine receptor

Key:
[1] = molecular target: B3; test: competition with 125I-CPCR4 tracer on CXCR4-expressing cells
[2] = molecular target: B3; test: as above; remark: listed apart in the source
[3] = molecular target: T1, recombinant human SDF-1α (stromal cell-derived factor 1α) (human, UniProt P48061-2 22-89); test: competitive radioligand binding on CXCR4-expressing cells
T1 construct: also called SFD-1α

[4] = molecular target: B3; test: competition with 125I-CPCR4 tracer on CXCR4-expressing cells; remark: listed apart in the source
[5] = molecular target: B3; test: radioligand binding on Jurkat and CMS5/CXCR4 cells
[6] = molecular target: B3; test: saturation radioligand binding, Jurkat and CMS5/CXCR4 cells
[7] = molecular target: B3; test: competition with 125I-CPCR4 tracer on CXCR4-expressing cells; remark: listed apart in the source

B1: cyc[D-Tyr-Arg-(Me)Arg-Nal-Gly] (peptide)
peptide: cyclo([dY]R[NMeR][2Nal]G)
notes: also called OD3
Binder B1 has an IC50 [1] of 31 nM.

B2: cyc[D-Tyr-Arg-Arg-Nal-Dap(FP)-Gly] (peptide)
peptide: cyclo([dY]RR[2Nal][Dap]G)
modifications: not fully specified (residue 5); printed as cyc[D-Tyr-Arg-Arg-Nal-Dap(FP)-Gly]
notes: also called BL 58; BL58
B2 showed an IC50 [2] of roughly 1000 nM.

B3: binds [3].

B4: cyc[D-Tyr-Arg-Arg-nal-Ala-Gly] (peptide)
peptide: cyclo([dY]RR[nal]AG)
modifications: reading uncertain; also: printed as cyc[D-Tyr-Arg-Arg-nal-Ala-Gly]
notes: differs by nal against Nal; also called BL 40
B4 gave an IC50 [4] of roughly 1000 nM.

B5: cyc[D-Tyr-(Me)Arg-Arg-Nal-Gly] (peptide)
peptide: cyclo([dY][NMeR]R[2Nal]G)
SMILES: CN1C(=O)[C@@H](Cc2ccc(O)cc2)NC(=O)CNC(=O)[C@H](Cc2ccc3ccccc3c2)NC(=O)[C@H](CCCNC(=N)N)NC(=O)[C@@H]1CCCNC(=N)N
notes: also called OD1
B5 showed an IC50 [1] of 23 nM.

B6: 125I-CPCR4 (peptide)
peptide: cyclo([dY](125I)RR[2Nal]G)
notes: also called radiolabeled CPCR4
In the case of B6, the Kd [5] is reported as 0.4 nM and the Kd [6] is reported as 0.3 to 0.4 nM.

B7: cyc[D-Tyr-His-Arg-Nal-Gly] (peptide)
peptide: cyclo([dY]HR[2Nal]G)
SMILES: N=C(N)NCCC[C@@H]1NC(=O)[C@H](Cc2c[nH]cn2)NC(=O)[C@@H](Cc2ccc(O)cc2)NC(=O)CNC(=O)[C@H](Cc2ccc3ccccc3c2)NC1=O
For B7, the IC50 [7] was 30 nM.
